Reference: publication PMC8200818, “SPECT/CT Imaging, Biodistribution and Radiation Dosimetry of a ^177Lu-DOTA-Integrin αvβ6 Cystine Knot Peptide in a Pancreatic Cancer Xenograft Model” (Frontiers in Oncology, 2021)

How the values were obtained:
Capan-2 xenografts = system: Capan-2 xenografts
Text: (§1) For in vivo experiments, at least 8-week-old female athymic NMRI-Foxn1^nu/Foxn1^nu mice (Janvier Labs, Saint-Berthevin, France) were used. Animal care followed institutional guidelines and all experiments were approved by local animal research authorities. For the generation of tumor xenografts, 5 x 10^6 cells of Capan-2 cells were inoculated subcutaneously into the left and right shoulder (1:1 phosphate-buffered saline [PBS]/Matrigel Basement Membrane Matrix High Concentration, Corning, Corning, USA). Tumors were allowed to grow for two to four weeks (tumor volume > 100 mm^3) after cell inoculation.
(§2) Radiolabeling of the DOTA-integrin αvβ6 knottin was carried out manually using [^177Lu]LuCl3 and a reagent kit from ITG Isotope Technologies Garching GmbH (Garching, Germany). A total of 40 µL (stock solution of peptide at 1 µg/µL in 10% DMSO in water) was added to 500 µL of ascorbate buffer solution pH 5.0, prepared from the kit (composition not disclosed by vendor) and the resulting mixture was then added to 35 µL of [^177Lu]LuCl3 (2 GBq in aqueous 0.04 M HCl) and the reaction mixture was heated at 80 °C for 35 minutes followed by cooling for 10 minutes at room temperature. The product was then diluted with 0.5 mL of saline and the pH was adjusted to 7 using a 1 M aqueous solution of NaHCO3 prior to injection in mice. A reverse-phase HPLC system (Knauer GmbH, Germany) with a column (Eurospher II, C18, 250 × 4 mm) was used to determine the radiochemical purity of the radiotracer. The HPLC system was equipped with an Azura P.6.1L pump coupled with ultraviolet (Azura UVD 2.1L) and radiometric (γ-Raytest-Isotopenmessgeraete GmbH, Germany) detectors. The gradient elution system used mobile phase A (100% acetonitrile) and mobile phase B (deionized H2O containing 0.1% trifluoroacetic acid) and a flow rate of 1.0 mL/min. Starting with 0% A and 100% B, the gradient was increased to 100% A over 25 min and finally returned to initial gradient conditions within 5 min.
SPECT and CT imaging were performed using the nanoSPECT/CTplus scanner (Mediso, Hungary/Bioscan, France). […]

in vivo = details: female, mouse, iv, 1 MBq, total radioactivity; for tissue uptake at 24 h: 24 h p.i.; for tissue uptake at 24 h / tissue uptake at 48 h / tissue uptake at 72 h / tissue uptake at 192 h: nude mice, Capan-2 xenografts, mean ± SD (4 ≤ n ≤ 5); for tissue uptake at 48 h: 48 h p.i.; for tissue uptake at 72 h: 72 h p.i.; for tissue uptake at 192 h: 192 h p.i.
Text: as §1, §2
Tumor-bearing mice (n=4-5 per time point) were injected with approximately 1 MBq (22 pmol) of ^177Lu-DOTA-integrin αvβ6 knottin to the tail vein via a catheter. Mice (n=4-5 per time point) were sacrificed and dissected one, two, three and eight days post injection. Tumor, blood, stomach, pancreas, small intestine, colon, liver, spleen, kidney, heart, lung, muscle and femur samples were weighed and uptake of radioactivity was measured by a gamma counter.

[1] = NMRI-Foxn1^nu/Foxn1^nu (athymic nude), colon, Colon uptake, ~1 MBq i.v.
[2] = NMRI-Foxn1^nu/Foxn1^nu (athymic nude), liver, Liver uptake, ~1 MBq i.v.
[3] = NMRI-Foxn1^nu/Foxn1^nu (athymic nude), small intestine, Small intestine uptake, ~1 MBq i.v.
[4] = NMRI-Foxn1^nu/Foxn1^nu (athymic nude), spleen, Spleen uptake, ~1 MBq i.v.
[5] = NMRI-Foxn1^nu/Foxn1^nu (athymic nude), tail, Tail activity, ~1 MBq i.v.
[6] = NMRI-Foxn1^nu/Foxn1^nu (athymic nude), tumor, Tumor uptake, ~1 MBq (22 pmol) i.v.
[7] = NMRI-Foxn1^nu/Foxn1^nu (athymic nude), tumor/blood
[8] = NMRI-Foxn1^nu/Foxn1^nu (athymic nude), tumor/kidney
[9] = NMRI-Foxn1^nu/Foxn1^nu (athymic nude), tumor/liver
[10] = NMRI-Foxn1^nu/Foxn1^nu (athymic nude), tumor/muscle
[11] = NMRI-Foxn1^nu/Foxn1^nu (athymic nude), tumor/pancreas
[12] = athymic NMRI-Foxn1^nu/Foxn1^nu, blood, Blood activity, ~1 MBq i.v.

## CC[C@H](C)[C@@H]1NC(=O)[C@@H](NC(=O)CNC(=O)CN2CCN(CC(=O)O)CCN(CC(=O)O)CCN(CC(=O)O)CC2)CSSC[C@@H]2NC(=O)[C@H](C)NC(=O)CNC(=O)[C@@H]3CCCN3C(=O)[C@@H]3CSSC[C@@H](C(=O)NCC(=O)O)NC(=O)[C@H](Cc4ccc(O)cc4)NC(=O)CNC(=O)[C@H](CC(N)=O)NC(=O)CNC(=O)[C@H](CCCNC(=N)N)NC(=O)[C@H](CSSC[C@H](NC(=O)[C@H](CCCNC(=N)N)NC(=O)[C@H](Cc4ccccc4)NC(=O)[C@H](CC(C)C)NC(=O)[C@H](CC(C)C)NC(=O)[C@H]([C@@H](C)O)NC(=O)CNC(=O)[C@H](CC(C)C)NC(=O)[C@H](CC(=O)O)NC(=O)[C@H]([C@@H](C)O)NC(=O)[C@H](CCCNC(=N)N)NC(=O)CNC(=O)[C@H](CC(N)=O)NC(=O)[C@H](CC(C)C)NC1=O)C(=O)N[C@@H](CCCNC(=N)N)C(=O)N[C@@H](CCCNC(=N)N)C(=O)N[C@@H](CC(=O)O)C(=O)N[C@@H](CO)C(=O)N[C@@H](CC(=O)O)C(=O)N3)NC(=O)[C@H]([C@@H](C)CC)NC2=O [^177Lu-DOTA-integrin αvβ6 knottin, metal not drawn]
Capan-2 xenografts; 22 h p.i., 62 MBq i.v.
  Tracer accumulation (SPECT MIP): accumulation of ^177Lu-DOTA-integrin αvβ6 knottin in both the tumors and the kidneys
  Uptake by other organs (SPECT): low or moderate
Capan-2 xenografts; kidney versus tumor, up to 3 h p.i.
  Initial kidney accumulation (SPECT): higher initial accumulation
In vivo; [1]
  tissue uptake at 24 h: 1.37 %ID/g
  tissue uptake at 48 h: 0.56 %ID/g
  tissue uptake at 72 h: 0.43 %ID/g
  tissue uptake at 192 h: 0.04 %ID/g
In vivo; [2]
  tissue uptake at 24 h: 0.24 %ID/g
  tissue uptake at 48 h: 0.18 %ID/g
  tissue uptake at 72 h: 0.2 %ID/g
  tissue uptake at 192 h: 0.08 %ID/g
In vivo; [3]
  tissue uptake at 24 h: 0.76 %ID/g
  tissue uptake at 48 h: 0.35 %ID/g
  tissue uptake at 72 h: 0.27 %ID/g
  tissue uptake at 192 h: 0.02 %ID/g
In vivo; [4]
  tissue uptake at 24 h: 0.06 %ID/g
  tissue uptake at 48 h: 0.07 %ID/g
  tissue uptake at 72 h: 0.18 %ID/g
In vivo; [5]
  tissue uptake at 72 h: 0.16 %ID/g
  tissue uptake at 192 h: 0.08 %ID/g
In vivo; [6]
  tissue uptake at 48 h: 2.45 %ID/g
  tissue uptake at 72 h: 3.46 %ID/g
  tissue uptake at 192 h: 1.16 %ID/g
In vivo; [7]
  Kp at 24 h: 498
  Kp at 48 h: 851
  Kp at 72 h: 697
  Kp at 192 h: 2120
In vivo; [8]
  tissue to tissue ratio at 24 h: 0.17
  tissue to tissue ratio at 48 h: 0.19
  tissue to tissue ratio at 72 h: 0.24
  tissue to tissue ratio at 192 h: 0.51
In vivo; [9]
  tissue to tissue ratio at 24 h: 13
  tissue to tissue ratio at 48 h: 13.6
  tissue to tissue ratio at 72 h: 18.4
  tissue to tissue ratio at 192 h: 14.6
In vivo; [10]
  tissue to tissue ratio at 24 h: 13.1
  tissue to tissue ratio at 48 h: 23.1
  tissue to tissue ratio at 72 h: 35.8
  tissue to tissue ratio at 192 h: 32.9
In vivo; [11]
  tissue to tissue ratio at 24 h: 13.1
  tissue to tissue ratio at 48 h: 15.6
  tissue to tissue ratio at 72 h: 27
  tissue to tissue ratio at 192 h: 38.7
In vivo; [12]
  tissue uptake at 24 h: 0.01 %ID/g
  tissue uptake at 72 h: 0.01 %ID/g
In vivo; athymic NMRI-Foxn1^nu/Foxn1^nu, femur, Femur uptake, ~1 MBq i.v.
  tissue uptake at 24 h: 0.3 %ID/g
